Experimental data published in patent publication US20240327530A1 (ICHNOS SCIENCES, published 2024).

T1: Recombinant mouse IL-1RAP Fc fusion protein (Sino Biologicals, catalog no. 52657-M02H) (mouse, UniProt Q61730 21-350)
T1 construct: Bought; not shown: Fc part of the bought fusion protein
T1 sequence: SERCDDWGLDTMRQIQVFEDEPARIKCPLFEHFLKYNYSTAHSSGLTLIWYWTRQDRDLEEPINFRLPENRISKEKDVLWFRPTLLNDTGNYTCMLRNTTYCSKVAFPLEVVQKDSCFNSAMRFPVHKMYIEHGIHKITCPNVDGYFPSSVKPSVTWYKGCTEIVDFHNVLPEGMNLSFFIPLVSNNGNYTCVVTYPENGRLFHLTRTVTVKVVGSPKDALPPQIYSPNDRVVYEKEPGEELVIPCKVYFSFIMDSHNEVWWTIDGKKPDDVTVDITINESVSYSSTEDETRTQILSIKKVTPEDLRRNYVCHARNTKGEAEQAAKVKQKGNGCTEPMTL

T2: Recombinant cynomolgus monkey IL-1RAP-ECD(S21-E359)-avi-his protein (cynomolgus monkey, UniProt P59822 21-359 (rhesus entry))
T2 construct: also called cyno IL-1RAP-ECD-Avi-His; recombinant cynomolgus monkey IL-1RAP-avi-his protein
T2 sequence: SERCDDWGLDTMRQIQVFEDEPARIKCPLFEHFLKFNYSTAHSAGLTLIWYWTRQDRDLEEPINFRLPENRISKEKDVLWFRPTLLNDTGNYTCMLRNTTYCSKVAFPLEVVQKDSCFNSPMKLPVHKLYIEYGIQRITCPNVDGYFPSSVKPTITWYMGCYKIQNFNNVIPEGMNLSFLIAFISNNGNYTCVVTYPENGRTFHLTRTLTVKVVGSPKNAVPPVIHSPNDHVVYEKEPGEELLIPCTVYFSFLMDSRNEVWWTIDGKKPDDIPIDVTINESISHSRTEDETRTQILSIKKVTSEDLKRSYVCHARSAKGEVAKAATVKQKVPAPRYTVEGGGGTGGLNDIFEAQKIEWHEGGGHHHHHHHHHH

T3: Recombinant human IL-1RAP-ECD(S21-E359)-avi-his protein (human, UniProt Q9NPH3 21-359)
T3 construct: Biotinylated where loaded on streptavidin; also called human IL-1RAP-ECD-Avi-His; recombinant human IL-1RAP-avi-his protein
T3 sequence: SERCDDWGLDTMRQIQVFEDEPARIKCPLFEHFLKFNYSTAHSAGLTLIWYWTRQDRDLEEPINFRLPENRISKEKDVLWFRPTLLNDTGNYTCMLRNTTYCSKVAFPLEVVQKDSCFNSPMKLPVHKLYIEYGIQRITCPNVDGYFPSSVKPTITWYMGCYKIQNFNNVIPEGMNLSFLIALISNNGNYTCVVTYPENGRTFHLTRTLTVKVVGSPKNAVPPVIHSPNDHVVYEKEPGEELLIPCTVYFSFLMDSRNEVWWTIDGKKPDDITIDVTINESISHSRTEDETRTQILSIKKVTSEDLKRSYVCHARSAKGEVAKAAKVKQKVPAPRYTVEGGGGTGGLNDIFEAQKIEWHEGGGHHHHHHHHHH

T4: Recombinant human IL-1RAP Fc fusion protein (Acrobiosystems, catalog no. ILP-H5256) (human, UniProt Q9NPH3 21-359, limits assumed)
T4 construct: Bought; not shown: Fc part of the bought fusion protein
T4 sequence: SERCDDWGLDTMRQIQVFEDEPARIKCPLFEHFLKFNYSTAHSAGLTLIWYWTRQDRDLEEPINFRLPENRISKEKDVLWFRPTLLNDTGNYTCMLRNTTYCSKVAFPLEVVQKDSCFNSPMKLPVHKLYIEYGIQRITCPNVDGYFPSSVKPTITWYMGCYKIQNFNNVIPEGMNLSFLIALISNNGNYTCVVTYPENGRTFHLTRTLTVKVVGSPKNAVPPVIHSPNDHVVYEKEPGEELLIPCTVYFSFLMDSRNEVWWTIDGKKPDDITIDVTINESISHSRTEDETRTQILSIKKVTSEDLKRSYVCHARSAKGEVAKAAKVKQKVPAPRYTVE


Experiments:
[1] = target: T1, Recombinant mouse IL-1RAP Fc fusion …; experiment: SPR, mouse IL-1RAP-Fc captured, Fab as analyte (0.04 to 5 nM)
Description: Affinities of the Fab fragments to mouse IL-1RAP were measured as described in Example 1, with the following modifications. Measurements were performed on Series S CM5 sensor chips (BIACORE™ T200, BIACORE™, GE […]®, catalog no. BR100530) coupled with anti-human IgG Fc (BIACORE™, GE […]®, catalog no. BR100839) using a commercial amine coupling kit (BIACORE™, GE […]®, catalog no. BR100050). SPR measurements were performed with commercially available recombinant mouse IL-1RAP Fc fusion protein (Sino Biologicals, catalog no. 52657-M02H). The affinities to mouse IL-1RAP were assessed by immobilizing mouse IL-1RAP-Fc and using Fab fragments as analyte. Around 60 RUs of mouse IL-1RAP Fc fusion protein were captured on fc2 of a Series S CM5 sensor chip coupled with anti-human IgG Fc. Fab fragments were injected in single cycle kinetic at different concentrations ranging from 0.04 to 5 nM, in HBS-EP+ buffer (BIACORE™, GE […]®, catalog no. BR100669) at a flow rate of 30 μl/min for 3 min on fc1 and fc2 (fc1 being used as reference). Dissociation was monitored for 10 min.

[2] = target: T2, Recombinant cynomolgus monkey …; experiment: SPR, IgG1 LALA captured by anti-human Fc, cyno IL-1RAP-avi-his as analyte, 1:1 fit
Description: (§1) Surface plasmon resonance (SPR) was used to measure the binding affinities of the human IgG1 LALA molecules for human and cynomolgus monkey IL-1RAP. Affinities were measured on a BIACORE™ T200 instrument (BIACORE™, GE […]®) at 25° C. and analyzed with the BIACORE™ T200 Evaluation Software (v3.1). Measurements were performed on Series S CM5 sensor chips (BIACORE™ T200, BIACORE™, GE […]®, catalog no. BR100530) coupled with anti-human IgG Fc (BIACORE™, GE […]®, catalog no. BR100839) using a commercial amine coupling kit (BIACORE™, GE […]®, catalog no. BR100050). SPR measurements were performed with recombinant human IL-1RAP-avi-his protein produced in house (SEQ ID NO. 1) or recombinant cynomolgus monkey IL-1RAP-avi-his protein produced in house (SEQ ID NO. 2). The affinities to human and cynomolgus monkey IL-1RAP were assessed by immobilizing anti-IL-1RAP IgG1 LALA molecules and using IL-1RAP proteins as analyte. Around 150 RU of human IgG1 LALA were captured on fc2 of a Series S CM5 sensor chip coupled with anti-human IgG Fc. Recombinant human IL-1RAP-avi-his protein or recombinant cynomolgus monkey IL-1RAP-avi-his protein was injected in multi cycle kinetic at different concentrations ranging from 0.14 to 100 nM, in HBS-EP+ buffer (BIACORE™, GE […]®, catalog no. BR100669) at a flow rate of 30 μl/min for 3 min on fc1 and fc2 (fc1 being used as reference). Dissociation was monitored for 12 min. After each cycle, the surface was regenerated with 60 μl of regeneration solution provided with anti-human IgG Fc capture kit (BIACORE™, GE […]®, catalog no. BR100839). Experimental data were processed using the 1:1 Langmuir kinetic fitting model. Measurements included zero-concentration samples for referencing. Chi², U- and residual values were used to evaluate the quality of a fit between the experimental data and individual binding models.

[3] = target: T3, Recombinant human …; experiment: SPR, IgG1 LALA captured by anti-human Fc, human IL-1RAP-avi-his as analyte, 1:1 fit
Description: as §1

[4] = target: T4, Recombinant human IL-1RAP Fc fusion …; experiment: SPR, human IL-1RAP-Fc captured, Fab as analyte (0.08 to 50 nM)
Description: BR100669) at a flow rate of 30 μl/min for 3 min on fc1 and fc2 (fc1 being used as reference). Dissociation was monitored for 5 min. After each cycle, the surface was regenerated with 60 μl of regeneration solution provided with anti-human IgG Fc capture kit (BIACORE™, GE […]®, catalog no. BR100839) or BiotinCAPture kit (BIACORE™, GE […]®, catalog no. 28920234) respectively. Experimental data were processed using the 1:1 Langmuir kinetic fitting model. Measurements included zero-concentration samples for referencing. Chi², U- and residual values were used to evaluate the quality of a fit between the experimental data and individual binding models. […]

| Binder | Kd [1] [nM] | Kd [2] [nM] | koff [2] [s⁻¹] | kon [2] [M⁻¹ s⁻¹] | Kd [3] [nM] | koff [3] [s⁻¹] | kon [3] [M⁻¹ s⁻¹] | Kd [4] [nM] |
| --- | --- | --- | --- | --- | --- | --- | --- | --- |
| Anti-IL-1RAP-C3-MP01-A2 Fab (Fab, V domains shown) VH: EVQLLESGGGLVQPGGSLRLSCAASGFTFAEYAMNWVRQAPGKGLEWVSAISYDGEGTLYADSVKGRFTISRDNSKNTLYLQMNSLRAEDTAVYYCARFRYYTAFDYWGQGTLVTVSS VL: not shown | 0.68 |  |  |  |  |  |  |  |
| Anti-IL-1RAP-C3-MP01-A3 Fab (Fab, V domains shown, also called Fab clone anti-IL-1RAP-C3-A3) VH: EVQLLESGGGLVQPGGSLRLSCAASGFIFSHYGMSWVRQAPGKGLEWVSAISYDGEGTLYADSVKGRFTISRDNSKNTLYLQMNSLRAEDTAVYYCARFRYYTAFDYWGQGTLVTVSS VL: not shown | 0.14 |  |  |  |  |  |  |  |
| Anti-IL-1RAP-C8-recC IgG1 LALA (antibody, V domains shown, Human IgG1 with L234A/L235A (EU); whether it is the full heavy chain or only VH is not clear; also called ISB 880-C8-recC) VH: QVQLVQSGAEVKKPGSSVKVSCKASGSPAEPYAIQWVRQAPGQGLEWMGYIIPSLGGYDYAQKFQGRVTITADESTSTAYMELSSLRSEDTAVYYCARGQTLYDSGRQFDIWGQGTLVTVSS VL: not shown |  | 0.276 | 0.000236 | 854000 | 0.237 | 0.000199 | 840000 |  |
| Anti-IL-1RAP-C8-RecC-AA-IgG1LALA (antibody, V domains shown, Human IgG1 LALA; also called ISB 880-C8-recC-AA) VH: QVQLVQSGAEVKKPGSSVKVSCKASGSPAEPYAIQWVRQAPGQGLEWMGYIIPSLGGYDYAQKFQGRVTITADESTSTAYMELSSLRSEDTAVYYCARGQTLYAAGRQFDIWGQGTLVTVSS VL: not shown |  | 0.24 | 0.000187 | 777000 | 0.267 | 0.000169 | 634000 |  |
| Anti-IL-1RAP-C8-RecC-AS-IgG1LALA (antibody, V domains shown, Human IgG1 LALA; D100/S100a (Kabat) of RecC replaced by AS; also called ISB 880-C8-recC-AS) VH: QVQLVQSGAEVKKPGSSVKVSCKASGSPAEPYAIQWVRQAPGQGLEWMGYIIPSLGGYDYAQKFQGRVTITADESTSTAYMELSSLRSEDTAVYYCARGQTLYASGRQFDIWGQGTLVTVSS VL: not shown |  | 0.254 | 0.00016 | 628000 | 0.287 | 0.000161 | 561000 |  |
| Anti-IL-1RAP-C8-RecC-DA-IgG1LALA (antibody, V domains shown, Human IgG1 LALA; D100/S100a (Kabat) of RecC replaced by DA; also called ISB 880-C8-recC-DA) VH: QVQLVQSGAEVKKPGSSVKVSCKASGSPAEPYAIQWVRQAPGQGLEWMGYIIPSLGGYDYAQKFQGRVTITADESTSTAYMELSSLRSEDTAVYYCARGQTLYDAGRQFDIWGQGTLVTVSS VL: not shown |  | 0.145 | 0.00019 | 1.31e+06 | 0.14 | 0.000162 | 1.16e+06 |  |
| Anti-IL-1RAP-C8-RecC-ET-IgG1LALA (antibody, V domains shown, Human IgG1 LALA; also called ISB 880-C8-recC-ET) VH: QVQLVQSGAEVKKPGSSVKVSCKASGSPAEPYAIQWVRQAPGQGLEWMGYIIPSLGGYDYAQKFQGRVTITADESTSTAYMELSSLRSEDTAVYYCARGQTLYETGRQFDIWGQGTLVTVSS VL: not shown |  | 0.336 | 0.000308 | 916000 | 0.278 | 0.000253 | 916000 |  |
| Anti-IL-1RAP-C8-H1B-H10-Fab (Fab, V domains shown) VH: QVQLVQSGAEVKKPGSSVKVSCKASGSTWEPYAIQWVRQAPGQGLEWMGYIIPLHGQVDYAQKFQGRVTITADESTSTAYMELSSLRSEDTAVYYCARGQTLYDSGRQFDIWGQGTLVTVSS VL: not shown |  |  |  |  |  |  |  | 0.209 |
| Anti-IL-1RAP-C8-H2B-B5-Fab (Fab, V domains shown) VH: QVQLVQSGAEVKKPGSSVKVSCKASGGQFSEYAIQWVRQAPGQGLEWMGYIIPTVGGFDYAQKFQGRVTITADESTSTAYMELSSLRSEDTAVYYCARGQTLYDSGRQFDIWGQGTLVTVSS VL: not shown |  |  |  |  |  |  |  | 1.37 |
| Anti-IL-1RAP-C8-H2B-C10-Fab (Fab, V domains shown, also called ISB 880-C8-H2B-C10) VH: QVQLVQSGAEVKKPGSSVKVSCKASGGQFSEYAIQWVRQAPGQGLEWMGYIIPSLGGYDYAQKFQGRVTITADESTSTAYMELSSLRSEDTAVYYCARGQTLYDSGRQFDIWGQGTLVTVSS VL: not shown |  |  |  |  |  |  |  | 0.589 |
| Anti-IL-1RAP-C8-recA-Fab (Fab, V domains shown) VH: QVQLVQSGAEVKKPGSSVKVSCKASGSTWEPYAIQWVRQAPGQGLEWMGYIIPSLGGYDYAQKFQGRVTITADESTSTAYMELSSLRSEDTAVYYCARGQTLYDSGRQFDIWGQGTLVTVSS VL: not shown |  |  |  |  |  |  |  | 0.051 |
| Anti-IL-1RAP-C8-recB-Fab (Fab, V domains shown) VH: QVQLVQSGAEVKKPGSSVKVSCKASGGPRRAYAIQWVRQAPGQGLEWMGYIIPSLGGYDYAQKFQGRVTITADESTSTAYMELSSLRSEDTAVYYCARGQTLYDSGRQFDIWGQGTLVTVSS VL: not shown |  |  |  |  |  |  |  | 0.052 |
| Anti-IL-1RAP-C8-recC-Fab (Fab, V domains shown, also called Fab clone anti-IL-1RAP-C8-RecC) VH: QVQLVQSGAEVKKPGSSVKVSCKASGSPAEPYAIQWVRQAPGQGLEWMGYIIPSLGGYDYAQKFQGRVTITADESTSTAYMELSSLRSEDTAVYYCARGQTLYDSGRQFDIWGQGTLVTVSS VL: not shown |  |  |  |  |  |  |  | 0.038 |
